Measured values taken from patent US20220332804A1 (CSL INNOVATION, published 2022).

Legend:
Assay in all cases: SPR, KD relative to WT C2;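 further: biacore SPR at 37 °C, anti-C2 mAbs captured via immobilised goat anti-human IgG, C2 alanine or serine surface mutants as analytes, 1:1 model fitted, double-referenced sensograms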
human C2 T317A = target: T1, human C2 T317A (human, UniProt P06681 21-752)
T1 sequence: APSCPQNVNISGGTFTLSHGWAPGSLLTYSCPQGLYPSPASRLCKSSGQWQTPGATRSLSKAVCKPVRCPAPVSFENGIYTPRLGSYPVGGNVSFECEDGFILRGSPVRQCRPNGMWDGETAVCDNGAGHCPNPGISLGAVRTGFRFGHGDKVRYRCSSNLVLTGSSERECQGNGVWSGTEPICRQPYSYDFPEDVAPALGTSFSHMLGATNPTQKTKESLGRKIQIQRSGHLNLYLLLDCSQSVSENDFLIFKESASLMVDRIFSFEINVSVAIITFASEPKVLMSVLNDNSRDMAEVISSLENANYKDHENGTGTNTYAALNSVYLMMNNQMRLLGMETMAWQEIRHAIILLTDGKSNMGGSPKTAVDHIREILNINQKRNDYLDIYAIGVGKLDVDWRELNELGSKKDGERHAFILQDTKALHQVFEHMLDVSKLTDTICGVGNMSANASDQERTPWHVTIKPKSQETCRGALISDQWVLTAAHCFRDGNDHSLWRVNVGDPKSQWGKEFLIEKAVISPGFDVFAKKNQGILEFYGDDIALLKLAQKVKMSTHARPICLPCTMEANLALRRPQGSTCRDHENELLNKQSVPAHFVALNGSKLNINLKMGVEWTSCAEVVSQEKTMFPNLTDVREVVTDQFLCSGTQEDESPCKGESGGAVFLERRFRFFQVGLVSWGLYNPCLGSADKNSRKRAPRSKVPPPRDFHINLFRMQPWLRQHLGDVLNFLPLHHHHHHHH

human C2 I438A = target: T2, human C2 I438A (human, UniProt P06681 21-752)
T2 sequence: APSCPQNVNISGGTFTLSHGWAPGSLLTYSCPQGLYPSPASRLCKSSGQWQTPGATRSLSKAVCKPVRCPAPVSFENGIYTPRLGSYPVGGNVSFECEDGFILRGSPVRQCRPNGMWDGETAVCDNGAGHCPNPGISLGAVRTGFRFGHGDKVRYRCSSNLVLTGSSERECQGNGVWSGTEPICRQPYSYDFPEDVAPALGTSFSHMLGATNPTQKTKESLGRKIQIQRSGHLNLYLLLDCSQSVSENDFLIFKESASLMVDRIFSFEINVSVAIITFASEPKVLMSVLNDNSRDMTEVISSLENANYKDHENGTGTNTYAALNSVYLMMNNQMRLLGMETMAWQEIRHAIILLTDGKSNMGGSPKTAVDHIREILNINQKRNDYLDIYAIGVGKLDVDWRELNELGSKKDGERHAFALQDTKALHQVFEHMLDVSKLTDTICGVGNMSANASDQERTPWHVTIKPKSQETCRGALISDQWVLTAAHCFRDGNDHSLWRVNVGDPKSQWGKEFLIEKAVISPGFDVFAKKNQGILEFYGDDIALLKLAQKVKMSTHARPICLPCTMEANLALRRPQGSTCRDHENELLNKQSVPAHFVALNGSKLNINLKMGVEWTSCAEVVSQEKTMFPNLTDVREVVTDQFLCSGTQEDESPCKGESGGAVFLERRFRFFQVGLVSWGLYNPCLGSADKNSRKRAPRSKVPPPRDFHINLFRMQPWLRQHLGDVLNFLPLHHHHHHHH

human C2 E450A = target: T3, human C2 E450A (human, UniProt P06681 21-752)
T3 sequence: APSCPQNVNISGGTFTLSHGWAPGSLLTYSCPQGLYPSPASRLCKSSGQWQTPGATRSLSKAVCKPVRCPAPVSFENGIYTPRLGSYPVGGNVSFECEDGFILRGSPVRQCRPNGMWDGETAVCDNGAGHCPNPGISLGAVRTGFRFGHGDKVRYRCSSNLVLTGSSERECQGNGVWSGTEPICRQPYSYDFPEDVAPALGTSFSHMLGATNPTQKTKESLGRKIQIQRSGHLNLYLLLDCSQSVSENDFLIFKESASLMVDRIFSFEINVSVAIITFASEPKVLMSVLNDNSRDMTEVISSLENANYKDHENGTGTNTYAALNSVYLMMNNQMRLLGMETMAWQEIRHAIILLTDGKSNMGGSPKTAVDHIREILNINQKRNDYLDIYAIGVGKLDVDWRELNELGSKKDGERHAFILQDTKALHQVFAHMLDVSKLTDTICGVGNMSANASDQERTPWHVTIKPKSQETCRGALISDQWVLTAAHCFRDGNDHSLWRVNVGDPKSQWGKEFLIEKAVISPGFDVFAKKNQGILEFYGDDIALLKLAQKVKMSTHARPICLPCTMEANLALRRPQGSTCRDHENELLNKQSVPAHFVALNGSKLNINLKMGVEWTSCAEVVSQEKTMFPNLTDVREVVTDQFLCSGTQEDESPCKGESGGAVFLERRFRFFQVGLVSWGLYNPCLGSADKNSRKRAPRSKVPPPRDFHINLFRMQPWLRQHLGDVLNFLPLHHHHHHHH

human C2 Y558A = target: T4, human C2 Y558A (human, UniProt P06681 21-752)
T4 sequence: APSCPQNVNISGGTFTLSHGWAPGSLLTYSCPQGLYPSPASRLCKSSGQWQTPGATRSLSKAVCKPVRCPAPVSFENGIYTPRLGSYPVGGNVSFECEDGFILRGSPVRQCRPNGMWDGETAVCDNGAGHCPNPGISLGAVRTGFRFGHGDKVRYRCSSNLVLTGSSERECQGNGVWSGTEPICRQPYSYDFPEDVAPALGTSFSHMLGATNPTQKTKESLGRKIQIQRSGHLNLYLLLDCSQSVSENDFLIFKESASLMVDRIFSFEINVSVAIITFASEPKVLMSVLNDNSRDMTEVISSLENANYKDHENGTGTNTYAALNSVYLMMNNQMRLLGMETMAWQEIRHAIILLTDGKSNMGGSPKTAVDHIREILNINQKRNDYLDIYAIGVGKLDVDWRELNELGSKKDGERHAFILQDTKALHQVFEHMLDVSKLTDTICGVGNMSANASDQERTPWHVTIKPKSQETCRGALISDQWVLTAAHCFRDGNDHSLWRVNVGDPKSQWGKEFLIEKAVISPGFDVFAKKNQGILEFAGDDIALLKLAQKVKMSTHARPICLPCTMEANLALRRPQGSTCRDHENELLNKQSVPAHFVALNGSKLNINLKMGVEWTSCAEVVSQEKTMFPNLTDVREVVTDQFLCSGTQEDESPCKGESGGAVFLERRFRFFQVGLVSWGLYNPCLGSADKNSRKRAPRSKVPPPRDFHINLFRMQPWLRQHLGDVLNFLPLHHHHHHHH

B1: RF16-226 (antibody, human IgG4 S228P, lambda)
heavy: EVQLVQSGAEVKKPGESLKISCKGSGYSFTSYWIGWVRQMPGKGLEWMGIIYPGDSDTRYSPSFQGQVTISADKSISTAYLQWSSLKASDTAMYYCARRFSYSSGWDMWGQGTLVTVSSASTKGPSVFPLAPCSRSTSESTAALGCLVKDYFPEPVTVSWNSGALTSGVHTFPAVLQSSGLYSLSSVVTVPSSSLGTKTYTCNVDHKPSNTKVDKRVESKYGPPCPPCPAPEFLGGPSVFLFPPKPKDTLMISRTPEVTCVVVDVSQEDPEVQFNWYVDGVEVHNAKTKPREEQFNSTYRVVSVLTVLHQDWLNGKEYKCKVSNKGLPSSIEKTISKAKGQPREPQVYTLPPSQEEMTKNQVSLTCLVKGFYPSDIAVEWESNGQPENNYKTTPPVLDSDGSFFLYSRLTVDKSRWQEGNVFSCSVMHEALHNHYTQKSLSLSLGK
light: SYELTQPPSVSVSPGQTARITCSGDALTSKYVAWYQQKSGLAPLLVIYEDTRRPSGIPAKFSGSSSGSVATLTISGAHGDDEADYYCYSTDASGHQRVFGGGTKLTVLSQPKAAPSVTLFPPSSEELQANKATLVCLISDFYPGAVTVAWKADGSPVKAGVETTKPSKQSNNKYAASSYLSLTPEQWKSHRSYSCQVTHEGSTVEKTVAPTECS
notes: pH-dependent anti-C2 antibody from a phage display library; also called WT
Fold diff (human C2 T317A): 1 fold
Fold diff (human C2 I438A): 1 fold
Fold diff (human C2 E450A): 0 fold
Fold diff (human C2 Y558A): 16 fold
